Experimental data from the RNAGym collection of RNA variant scans (doi:10.1021/acssynbio.7b00057).

B1: Pistol ribozyme (parent)
chain: GGGUCGUUGUUCCAUAAUCGCGUGGAUAUGGCACGCAAGUUUCUACCGGGCACCGUAAAUGUCCGACUGGAGCCGUUCGGGCGGCUAUAAACAGACCUCAGGCCCGAAGCGUGGCGGCACCUGCCGCCGGUGGUAAAAAAGAUCGGAAGAGCACACGUCU

Variants of: B1
Assay: aptazyme ON/OFF ratio, guanine; higher = stronger switching; co-transcriptional cleavage with and without guanine

Question: For GGGUCGGUUACUGAUAAUCGCGUGGAUAUGGCACGCAAGUUUCUACCGGGCACCGUAAAUGUCCGACUGGAGCCGUUCGGGCGGCUAUAAACAGACCUCAGGCCCGAAGCGUGGCGGCACCUGCCGCCGGUGGUAAAAAAGAUCGGAAGAGCACACGUCU [U7G G9U U10A U11C C12U C13G], which “aptazyme ON/OFF ratio” value is on record?
Answer: Its value is 1.27.

Question: With GGGUCGAGCGAAGAUAAUCGCGUGGAUAUGGCACGCAAGUUUCUACCGGGCACCGUAAAUGUCCGACUGGAGCCGUUCGGGCGGCUAUAAACAGACCUCAGGCCCGAAGCGUGGCGGCACCUGCCGCCGGUGGUAAAAAAGAUCGGAAGAGCACACGUCU [U7A U8G G9C U10G U11A C12A C13G] as the variant, how does the “aptazyme ON/OFF ratio” value read?
Answer: The value was 1.38.

Question: With GGGUCGCGCGUACAUAAUCGCGUGGAUAUGGCACGCAAGUUUCUACCGGGCACCGUAAAUGUCCGACUGGAGCCGUUCGGGCGGCUAUAAACAGACCUCAGGCCCGAAGCGUGGCGGCACCUGCCGCCGGUGGUAAAAAAGAUCGGAAGAGCACACGUCU [U7C U8G G9C U10G C12A] as the variant, how does the “aptazyme ON/OFF ratio” value read?
Answer: Its value is 1.21.

Question: For GGGUCGGUGGAGGAUAAUCGCGUGGAUAUGGCACGCAAGUUUCUACCGGGCACCGUAAAUGUCCGACUGGAGCCGUUCGGGCGGCUAUAAACAGACCUCAGGCCCGAAGCGUGGCGGCACCUGCCGCCGGUGGUAAAAAAGAUCGGAAGAGCACACGUCU [U7G U10G U11A C12G C13G], which “aptazyme ON/OFF ratio” value is on record?
Answer: The value was 1.13.

Question: For GGGUCGAAUGUAGAUAAUCGCGUGGAUAUGGCACGCAAGUUUCUACCGGGCACCGUAAAUGUCCGACUGGAGCCGUUCGGGCGGCUAUAAACAGACCUCAGGCCCGAAGCGUGGCGGCACCUGCCGCCGGUGGUAAAAAAGAUCGGAAGAGCACACGUCU [U7A U8A G9U U10G C12A C13G], which “aptazyme ON/OFF ratio” value is on record?
Answer: The value was 1.09.

Question: With GGGUCGGGGAGCGAUAAUCGCGUGGAUAUGGCACGCAAGUUUCUACCGGGCACCGUAAAUGUCCGACUGGAGCCGUUCGGGCGGCUAUAAACAGACCUCAGGCCCGAAGCGUGGCGGCACCUGCCGCCGGUGGUAAAAAAGAUCGGAAGAGCACACGUCU [U7G U8G U10A U11G C13G] as the variant, how does the “aptazyme ON/OFF ratio” value read?
Answer: Its value is 1.18.

Question: For GGGUCGAGACUCUAUAAUCGCGUGGAUAUGGCACGCAAGUUUCUACCGGGCACCGUAAAUGUCCGACUGGAGCCGUUCGGGCGGCUAUAAACAGACCUCAGGCCCGAAGCGUGGCGGCACCUGCCGCCGGUGGUAAAAAAGAUCGGAAGAGCACACGUCU [U7A U8G G9A U10C C13U], which “aptazyme ON/OFF ratio” value is on record?
Answer: The value was 1.25.

Question: Which “aptazyme ON/OFF ratio” value does the source give for GGGUCGCCCUUUUAUAAUCGCGUGGAUAUGGCACGCAAGUUUCUACCGGGCACCGUAAAUGUCCGACUGGAGCCGUUCGGGCGGCUAUAAACAGACCUCAGGCCCGAAGCGUGGCGGCACCUGCCGCCGGUGGUAAAAAAGAUCGGAAGAGCACACGUCU [U7C U8C G9C C12U C13U] here?
Answer: The value was 1.14.

Question: With GGGUCGUGGUGAGAUAAUCGCGUGGAUAUGGCACGCAAGUUUCUACCGGGCACCGUAAAUGUCCGACUGGAGCCGUUCGGGCGGCUAUAAACAGACCUCAGGCCCGAAGCGUGGCGGCACCUGCCGCCGGUGGUAAAAAAGAUCGGAAGAGCACACGUCU [U8G U11G C12A C13G] as the variant, how does the “aptazyme ON/OFF ratio” value read?
Answer: The value was 1.17.

Question: With GGGUCGUUGCAUUAUAAUCGCGUGGAUAUGGCACGCAAGUUUCUACCGGGCACCGUAAAUGUCCGACUGGAGCCGUUCGGGCGGCUAUAAACAGACCUCAGGCCCGAAGCGUGGCGGCACCUGCCGCCGGUGGUAAAAAAGAUCGGAAGAGCACACGUCU [U10C U11A C12U C13U] as the variant, how does the “aptazyme ON/OFF ratio” value read?
Answer: Its value is 1.19.

Question: Which “aptazyme ON/OFF ratio” value does the source give for GGGUCGCGAAAAGAUAAUCGCGUGGAUAUGGCACGCAAGUUUCUACCGGGCACCGUAAAUGUCCGACUGGAGCCGUUCGGGCGGCUAUAAACAGACCUCAGGCCCGAAGCGUGGCGGCACCUGCCGCCGGUGGUAAAAAAGAUCGGAAGAGCACACGUCU [U7C U8G G9A U10A U11A C12A C13G] here?
Answer: The value was 1.2.

Question: Which “aptazyme ON/OFF ratio” value does the source give for GGGUCGCACGAUUAUAAUCGCGUGGAUAUGGCACGCAAGUUUCUACCGGGCACCGUAAAUGUCCGACUGGAGCCGUUCGGGCGGCUAUAAACAGACCUCAGGCCCGAAGCGUGGCGGCACCUGCCGCCGGUGGUAAAAAAGAUCGGAAGAGCACACGUCU [U7C U8A G9C U10G U11A C12U C13U] here?
Answer: Its value is 1.14.

Question: With GGGUCGCGCCCUAAUAAUCGCGUGGAUAUGGCACGCAAGUUUCUACCGGGCACCGUAAAUGUCCGACUGGAGCCGUUCGGGCGGCUAUAAACAGACCUCAGGCCCGAAGCGUGGCGGCACCUGCCGCCGGUGGUAAAAAAGAUCGGAAGAGCACACGUCU [U7C U8G G9C U10C U11C C12U C13A] as the variant, how does the “aptazyme ON/OFF ratio” value read?
Answer: The value was 1.04.

Question: For GGGUCGACGGCAGAUAAUCGCGUGGAUAUGGCACGCAAGUUUCUACCGGGCACCGUAAAUGUCCGACUGGAGCCGUUCGGGCGGCUAUAAACAGACCUCAGGCCCGAAGCGUGGCGGCACCUGCCGCCGGUGGUAAAAAAGAUCGGAAGAGCACACGUCU [U7A U8C U10G U11C C12A C13G], which “aptazyme ON/OFF ratio” value is on record?
Answer: Its value is 1.12.

Question: For GGGUCGAAUCCCUAUAAUCGCGUGGAUAUGGCACGCAAGUUUCUACCGGGCACCGUAAAUGUCCGACUGGAGCCGUUCGGGCGGCUAUAAACAGACCUCAGGCCCGAAGCGUGGCGGCACCUGCCGCCGGUGGUAAAAAAGAUCGGAAGAGCACACGUCU [U7A U8A G9U U10C U11C C13U], which “aptazyme ON/OFF ratio” value is on record?
Answer: The value was 1.04.

Question: For GGGUCGCUUUCCAAUAAUCGCGUGGAUAUGGCACGCAAGUUUCUACCGGGCACCGUAAAUGUCCGACUGGAGCCGUUCGGGCGGCUAUAAACAGACCUCAGGCCCGAAGCGUGGCGGCACCUGCCGCCGGUGGUAAAAAAGAUCGGAAGAGCACACGUCU [U7C G9U U11C C13A], which “aptazyme ON/OFF ratio” value is on record?
Answer: The value was 1.05.

Question: With GGGUCGUCAGAUAAUAAUCGCGUGGAUAUGGCACGCAAGUUUCUACCGGGCACCGUAAAUGUCCGACUGGAGCCGUUCGGGCGGCUAUAAACAGACCUCAGGCCCGAAGCGUGGCGGCACCUGCCGCCGGUGGUAAAAAAGAUCGGAAGAGCACACGUCU [U8C G9A U10G U11A C12U C13A] as the variant, how does the “aptazyme ON/OFF ratio” value read?
Answer: The value was 1.1.

Question: With GGGUCGGGUAUCUAUAAUCGCGUGGAUAUGGCACGCAAGUUUCUACCGGGCACCGUAAAUGUCCGACUGGAGCCGUUCGGGCGGCUAUAAACAGACCUCAGGCCCGAAGCGUGGCGGCACCUGCCGCCGGUGGUAAAAAAGAUCGGAAGAGCACACGUCU [U7G U8G G9U U10A C13U] as the variant, how does the “aptazyme ON/OFF ratio” value read?
Answer: The value was 1.31.
